These results are taken from patent US20210277411.

Holding throughout (assay): cell_activity
Data set [1] has as its system TALE nuclease pair BnFAD2_T01 (synthetic construct). The conditions noted are these: Westar protoplasts.
Data set [2] relates to TALE nuclease pair BnFAD2_T02 (synthetic construct). Particulars: Westar protoplasts.
Data set [3] deals with TALE nuclease pair BnFAD2_T07 (synthetic construct). The conditions noted are these: Westar protoplasts.
Data set [4] has as its system TALE nuclease pair BnFAD2_T05 (synthetic construct).
Data set [5] concerns TALE nuclease pair BnFAD2_T03 (synthetic construct). The conditions noted are these: Westar protoplasts.

In the case of “TCCCTCACCCTCTCTCCTACTTCGCCTGGCCTCTCTACTGGGCCTGCCA (double strand) [BnFAD2_T01 site in BnaA/BnaC.FAD2.a (SEQ ID NO:8)]”, the activity (% mutagenesis) in data set [1] (BnaA.FAD2.a, 25 C, 2 days, half-sites not demarcated) was determined as 8.3; in data set [1] (BnaC.FAD2.a, 25 C, 2 days), 10.
Sequence “TCGTCCCTTACTTCTCCTGGAAGTACGGCCATCGACGCCACCATTCCAA (double strand) [BnFAD2_T02 site in BnaC.FAD2.b (SEQ ID NO:17)]” yielded an activity (% mutagenesis) in data set [2] (BnaC.FAD2.b) of 5.5.
The sequence “TCCCCCACCCTCTCCCTTACCTCGCCTGGCCCCTCTACTGGGCCTGCCA (double strand) [BnFAD2_T01 site in BnaC.FAD2.b (SEQ ID NO:15)]” came in with an activity (% mutagenesis) in data set [1] (BnaC.FAD2.b, mismatched site) of 1.9.
As to “TCGTCCCTTACTTCTCCTGGAAGTACAGTCATCGACGCCACCATTCCAA (double strand) [BnFAD2_T02 site in BnaA/BnaC.FAD2.a (SEQ ID NO:9)]”, the results for the activity (% mutagenesis) in data set [2] (BnaA.FAD2.a) and in data set [2] (BnaC.FAD2.a) were 9.7 and 10.3, respectively.
On to “TCTGGGTCATAGCCCACGAGTGCGGCCACCACGCCTTCAGCGACTACCA (double strand)”, for which the activity (% mutagenesis) was 2.2 in data set [3] (BnaA.FAD2.a); 2.8 in data set [3] (BnaC.FAD2.a); 3.8 in data set [4] (BnaA.FAD2.a, Westar protoplasts); 4.4 in data set [4] (BnaC.FAD2.a, Westar protoplasts).
With “TGCGAGACACCACCCTTCACTCTCGGAGACCTCAAGAAAGCAATCCCA (double strand) [BnFAD2_T03 site in BnaC.FAD2.b (SEQ ID NO:19)]”, in data set [5] (BnaC.FAD2.b), the activity (% mutagenesis) amounted to 10.
Turning to “TGCGAGACACCGCCCTTCACTGTCGGAGAACTCAAGAAAGCAATCCCA (double strand) [BnFAD2_T03 site in BnaA/BnaC.FAD2.a (SEQ ID NO:10)]”, the activity (% mutagenesis) in data set [5] (BnaA.FAD2.a) stood at 9; in data set [5] (BnaC.FAD2.a), 9.8.
Regarding “TCTGGGTCATCGCCCACGAATGCGGCCACCACGCCTTCAGCGACCACCA (double strand) [BnFAD2_T05/T07 site in BnaC.FAD2.b (SEQ ID NO:14)]”, the activity (% mutagenesis) in data set [3] (BnaC.FAD2.b) was determined as 2.6; in data set [4] (BnaC.FAD2.b, printed as 23 but 1549/67387 reads = 2.3) it was 2.3.
